Assays:
[1] = biological target: enriched paired helical filament tau protein (ePHF) (human, phosphorylated residues of pathological tau, sites not stated); assay: direct ELISA
Description: Variable domain nucleic acid sequences from antibodies obtained from immunizations described above were used to prepare recombinant mouse IgG antibodies. These candidate antibodies were analyzed for binding to ePHF and specificity for ePHF over wild type tau by direct ELISA.
For direct ePHF and wildtype tau ELISA, plates were first coated with ePHF or wild type tau. Antigen solutions were prepared in PBS and 50 μL were pipetted into each well. Plates were covered and incubated for one hour at 37° C. or overnight at 4° C. Plates were then washed and blocked by addition of 150 μl of blocking buffer to each well and incubated one hour at room temperature. Plates were then washed before addition of serially diluted candidate antibody samples prepared in blocking buffer. Detection of candidate antibody binding was carried out by washing plates and adding a solution of enzyme-labeled secondary antibody in blocking buffer to each well. Secondary antibody binding was detected by addition of substrate and spectrophotometric analysis of resulting reaction product.

iPHF = iPHF (Homo sapiens (Human), UniProt P10636-8); assay: Octet, antibody on biosensor tips
Description: Anti-human tau antibodies were assessed for affinity for iPHF by Octet (ForteBio, Menlo Park, CA) analysis. Recombinant mouse IgG antibodies were prepared with clone-specific variable domain pairs selected from those presented in Table 3 and mouse IgG1 constant domains. Candidate antibodies were immobilized on biosensor tips (ForteBio) in kinetic buffer (ForteBio). Biosensor tips were then washed before introduction of a solution of iPHF in kinetic buffer for analysis of association and dissociation with candidate antibodies. Affinity measurements (K_D) were obtained using Data Analysis HT version 11.1 and corrected for background and high-frequency noise.

Binder	EC50 [1] [pM]	Kd (iPHF) [pM]
V0043 (antibody, V domains shown) VH: DVQLQESGPGLVKPSQSLSLTCSVSGYSITTNYFWNWIRLFPGNKLEWMGYISYDGSNVYNPSLKNRISITRDTSKNQFFLKLNSLTTEDTATYYCARGPPSAYWGQGTLVTVSA VL: SIVMTQSPKFLPVSAGDRVTMTCKASQSVGNNVAWYQQKPGQSPKLLIYYASNRYTGVPDRFTGSGSGTDFTLTISSVQVEDLVVYFCQQHYSSPLTFGAGTKLELK	581	
V0042 (antibody, V domains shown) VH: DVQLQESGPGLVKPSQSLSLTCSVTGYSITTNYYWNWIRQFPGNKLEWMGYITYDGIKTYNPSLNNRISITRDTSKNQFFLKLNSVTTEDTATYYCARGPGLDYWGQGTTLTVSS VL: SIVMTQTPKFLPVSAGDRVTMTCKASQSVGNNVAWYQQKPGQSPKLLIYYASNRYTGVPDRFTASGSGTDFTFTISSVQVEDLAVYFCQQHYSSPYTFGSGTNLEIK	869	
V0045 (antibody, V domains shown) VH: DVQLQESGPGLVKPSQSLSLTCSVTGYSITTNYYWNWIRQFPGNKLEWMGYISYDGSSNYNPSLKNRISITRDTSKNQFFLNLNSVTTEDTATYYCARDLLGYWGQGTTLTVSS VL: SIVMTQTPKFLPVSAGDRVTMTCKASQSLGNNVAWYQQKPGQSPKLLIYYASNRYTGVPDRFTGSGSGTDFTFTISSVQVEDLAVYFCQQHYSSPRTFGGGTKLEIR	618	
V0036 (antibody, V domains shown) VH: QVTLKESGPGILQPSQTLNLTCSFSGFSLSTSGMGVSWIRQPSGKGLEWLAHIYWDDDKRYNPSLKSRLTISKDTSRNQVFLKITSVDTADTATYYCVRRSRRGNYDYWGQGTTLTVSS VL: not shown	6430	
V0007 (antibody, V domains shown) VH: EVQLVESGGDLVKPGGSLKLSCAASGFTFSSYGLSWVRQTPDKRLEWVATISSGGDYTYYPDSVKGRFTISRDNAKNILYLHMSSLKSEDTAMYYCAREDGYYVGTMDYWGQGTSVTVSS VL: DIQMTQSPSSLSASLGERVSLTCRASQDIGSSLNWLQQEPDGTFKRLIYATSSLDSGVPKRFSGSRSGSDYSLTISSLESEDFVDYYCLQYDSLPLTFGAGTKLELK	740	
V0006 (antibody, V domains shown) VH: QVQLKESGPGLVAPSQSLSITCTVSGFSLTSYAISWVRQPPGKSLEWLGVIWTGGGSKYNSALKSRLSISKDNSKSQVFLKMNSLQTDDTARYYCVRNYDYYRYEGFDYWGQGTLVTVSA VL: DIKMTQSPSSLSASLGEGVSLTCRASQDIGSSLHWLQQKPDGTIKRLIYGTSTLDSDVPKRFSGSRSGSDYSLTISSLESEDFVDYFCLQYATSPPTFGGGTKLEIK	861	
V0008 (antibody, V domains shown) VH: QVQLKESGPGLVAPSQSLSITCTVSGFSLTTYAISWVRQPPGKGLEWLGVIWTGGGTDFNSALKSRLSISKDNSKSQVFLKMISLQTNDTARYYCARKGGSYYSTTYVGLYAMDYWGQGTSVTVSS VL: DIQMTQTTSSLSASLGDRVTISCRASQDISNYLNWYQQKPAGTVKLLIYYTSRLHSGVPSRFSGSGSGTDYSLTISNLEQEDVATYFCQQGNTLPWTFGGGSKLEIK	1540	
V0003 (antibody, V domains shown) VH: QVQLQQPGTELVKPGASVKLSCKASGYTFTKNWLHWVKQRPGQGLEWIGYINPSNGATNYNERFKSKASLTVDKSSTTAYMQLSSLTSEDSAVYYCARSGGWLLPYYAMDYWGHGTSVTVSS VL: EIVLIQSPALMAASPGEKVTITCSVSSSISSSNLHWYQQQSGTSPKPWILATSNLASGVPVRFSGSGSGTSYSLTISSMEAEDAATYYCQQWSSYPFTFGTGTKLEIK	2830	
V0055 (antibody, V domains shown) VH: not shown VL: DIVMTQSPSSLSVSAGEKVTMSCKSSQSLLNSGNQKNYLAWYQQKPGQPPKLLIYGASTRESGVPDRFTGSGSGTDFTLTISSVQAEDLAVYYCQNDHSHPYTFGGGTKLEIK		1300

More lines, in order of falling EC50 [1], values ahead:

EC50 [1] [pM]	Kd (iPHF) [pM]	Binder
480		V1005 (antibody, V domains shown) VH: QVTLKESGPGKLQPSQTLSLTCSFSGFSLSTSGMGVSWIRQPSGKGLEWLAHIYWDDDKRYNPSLKSRLTISKDTSRNQVFLKITSVDTADTATYYCARGWLRRKDYSAMDYWGQGTSVTVSS VL: NIVMTQSPKSMSMSVGERVTLSCKASEHVGPYVSWYQHKAEQSPKLLIYGASNRYTGVPDRFTGSGSATDFTLIISSVQAEDLADYHCGQTYSYPLTFGAGTKLELK
401		V1001 (antibody, V domains shown) VH: EVQLVESGGGLVKPGGSLKLSCAASGFTFSSYAMSWVRQTPEKRLEWVAAINSNGGRTYYPDTVKDRFTISRDNAKNTLYLQMSSLRSEDTALYYCARQGHSNYYEAWFAYWGQGTLVTVSA VL: DIKMTQSPSSMYASLGERLSITCKASQDINSYLNWFQQKPGKSPKTLIYRANRLVDGVPSRFSGSGSGQDYSLTISSLEDEDMGIYYCLQYDEFPLTFGAGTKLELR
237		V2001 (antibody, V domains shown) VH: DVQLVESGGGLVQPGGSRKLSCAASGFIFSSFGMHWVRQAPEKGLEWVAYISSGSATIYYADTVKGRFTISRDNPKNTLFLQMTSLRSEDTAMYYCARKRGSGNYVSAMDFWGQGTSVTVSS VL: DVLMTQTPLSLPVSLGDQASISCRSGQSIVHSNGNTYLEWYLQKPGQSPKLLIYKVSNRFSGVPDRFSGSGSGTDFTLKISRVEAEDLGVYYCFQGSHVPWTFGGGTKLEIK
234		V1003 (antibody, V domains shown) VH: EVKLVESGGGLVKPGGSLKLSCAASGFTFSSYAMSWVRQIPEKRLEWVAAINSNGGSTYYPDTVKDRFTISRDNAKNTLYLQMSSLRSEDTALYYCVRQGWDAWFAYWGQGTLVAVSA VL: DIKMTQSPSSMYASLGERVTITCKASQDINSYLSWFQQKPGKSPKTLIYRANRLVDGVPSRFSGSGSGQDYSLTISSLEYEDMGIYYCLQYDEFPLTFGAGTKLELK
209		V0044 (antibody, V domains shown) VH: DVQLQESGPGLVKPSQSLSLTCSVTGYSITTNYYWNWIRQFPGNKLEWMGYITYDGSNNYNPSLKNRISITRDTSKNQFFLKLNSVTTEDTATYYCARGPPTAYWGQGTLVTVSA VL: NIVMTQTPKFLPIAAGDRVIMTCKASQSVGNNVGWYQLKPGQSPKLLIYFASNRYTGVPDRFTGSGSGTDFTFTISSVQVEDLAVYFCQQHYSSPLTFGAGTKLELK
171		V00011 (antibody, V domains shown) VH: EVQLVESGGGLVKPGGSLKLSCAASGFTFSDYGMYWVRQAPEKGLEWVAYISSGSTTIYYADTVKGRFTISRDNAKNTLFLQMTSLRSEDTAMYYCAGHWYFDVWGTGTTVTVSS VL: DVLMTQTPVSLPVSLGDQASISCRSSQSIVHSNGNTHLEWYLQKPGQSPKLLIYKVSNRFSGVPDRFSGSGSGTDFTLKISRVEAEDLGVYYCFQDSHVPWTFGGGTKLEIK
134		V00010 (antibody, V domains shown) VH: QIQLVQSGPELKKPGETVKISCKASGYSFTTYGMSWVKQAPGKGLKWMGWINTYSGVPTYADDFKERFAFSLETSASTAYLQINNLKNEDTSTYFCARRGGLYDGYYGYWGQGTTLTVSS VL: DIVMSQSPSSLAVSAGEKVTMSCKSSQSLLSSRTRKNYLAWYQQKPGQSPKLLIYWASTRESGVPDRFTGSGSGTDFTLTITTVQAEDLAVYYCKQSYNLWTFGGGTKLEIK
126		V0001 (antibody, V domains shown) VH: EVQLVESGGGLVQPKGSLKLSCAASGFTFNTYAMYWVRQAPGKGLEWVARIRSKSSNYATYYADSVKDRFTISRDDSQSKLYLQMNNLKTEDTAMYYCVREGLWYYFDYWGQGTTLTVSS VL: DIQMTQITSSLSASLGDRVTISCRASQDISNYLNWYQQKPDGTVKLLIYSTSRLHSGVPSRFSGSGSGTDYSLTISNLEPEDIATYYCQQYSKLLPTFGSGTKLEIK
118		V0047 (antibody, V domains shown) VH: EVQLVESGGGLVKPGGSLKLSCAASGFTFSDYGMHWVRQAPEKGLEWVAYISSGSRTIYYADTVKGRFTISRDNAKNTLFLQMTSLRSEDTAMYYCARSPYAMDYWGQGTSVTVSS VL: DVVMTQTPLSLPVSLGDQASISCRSSQSLVHSNGNTYLHWYLQKPGQSPKLLIYKVSNRFSGVPDRFSGSGSGTDFTLKISRVEAEDLGVYFCSQSTHVPWTFGGGTKLEIK
98		V0025 (antibody, V domains shown) VH: QVQLQQPGTELVKPGASVKLSCKASGFTFTRFWMHWVKQRPGQGLEWIGNINPNNGETNYNEKFKIKAALTVDKSSTTAYMQLSSLTSEDSAVYSCARGTGTGAMDYWGQGTSVTVSS VL: DVVMTQTPLSLPVSLGDQASISCRSSQSLVHSTGNTYLYWYLQKPGQSPKLLIYRVSTRFSGVPDRFSGSGSGTDFTLKINRVEAEDLGVYFCFQGTHVPRTFGGGTKLEIK
69		V1004 (antibody, V domains shown) VH: EVQLVESGGGLVKPGGSLKLSCAASGFTFSSYAMSWVRQTPEKRLEWVAAINSNGGSIYYPDTVKDRFTISRDNAKNTLYLQMISLRSEDTALYYCARQGGSSWFVYWGQGTLVTVSA VL: DIKMIQSPSSMYASLGERVTITCKASQDINSYLSWFQQKPGKSPKTLIYRANRLVDGVPSRFSGSGSGQDYSLTISRLEYEDVGLYYCQQYDEFPLTFGAGTKLELK
53		V0049 (antibody, V domains shown) VH: QVTLKESGPGILQSSQTLSLTCSFSGFSLSTSGMGVSWIRQPSGKGLEWLAHIYWDDDKRYNPSLKSRLKISKDTSRNQVFLKITSVDTADTATYYCARRGYYSNGNYFDYWGQGTTLTVSS VL: QIVLTQSPTTMAASPGEKITITCSASSSISSTYLHWYQQKPGFSPKLLIYRTSNLASGVPARFSGSGSGTSYSLTIGTMEAEDVATYYCQQGSSIPRYTFGGGTKLEIK

From US12709641B2, “Tau binding compounds” (VOYAGER THERAPEUTICS, INC., dated 2026)
